The values that follow come from the RNAGym collection of RNA variant scans (doi:10.7554/elife.90254).

B1: LINE1-mini (parent)
chain: GGCAGAGCUCAACACAGCGUGGCAAAGUGGCUGUGGCUAGACUGCC

Variants of B1 are the subject of this data set. Briefly: self-cleavage, relative activity (ratio to wild type); higher = more cleavage; in vitro, sequencing; the parent is a self-cleaving ribozyme.
Consider C8G C37U, for which the self-cleavage was 0.05. Next, C8G A24U: 0.3; C8G A24G: 0.15. In the case of C8G A24C it was 0.09; in that of C8U G30A, 0.24; in that of C8U G30C, 0.26. Next, C8U G30U: 0.29; C8U U43G: 0.12. On to C8U U43A, for which the self-cleavage is 0.08. On to C8U U43C, for which the self-cleavage stood at 0.16. Next, C8G U43G: 0.88; C8G U43A: 0.03.

C8G U43C: the self-cleavage was found to be 0.02.

Regarding C8U G22C, the self-cleavage came out at 0.15. For C8U G22A, the self-cleavage was 0.15.

Turning to C8U G22U, the self-cleavage stood at 0.16. Next, U9A U20A: 0.16; U9A U20C: 0.12; U9A U20G: 0.16. C8U C37G: the self-cleavage came out at 0.07.

Take C8U C37U: the self-cleavage amounted to 0.2. In the case of C8U C37A it was 0.14; in that of U9A C10U, 0.08. Next, U9A C10G: 0.04.

Take U9A C10A: the self-cleavage turned out to be 0.04. Next, U9A C31A: 0.07; U9A C31G: 0.07. Next, U9A C31U: 0.04; U9A U34A: 0.21; U9A U34C: 0.18.

Consider U9A U34G, for which the self-cleavage is 0.08.

On to C8G U9G, for which the self-cleavage was 0.12. Turning to C8G U9C, the self-cleavage turned out to be 0.02. In the case of C8G U9A it was 0.21; in that of C8G G33A, 0.12. Next, C8G G33U: 0.03. Next, C8G G33C: 0.04.

As for C8G G19A, the self-cleavage worked out at 0.15. Consider C8G G19U, for which the self-cleavage worked out at 0.04. Next, C8G G19C: 0.05; C8G A16C: 0.11. Regarding C8G A16U, the self-cleavage was determined as 0.06.

Take C8G A16G: the self-cleavage worked out at 0.11.

For U9A G19C, the self-cleavage came to 0.06. Next, U9A G19U: 0.08; U9A G19A: 0.15; C8G G35C: 0.06.

Consider C8G G35A, for which the self-cleavage stood at 0.13. In the case of C8G G35U it was 0.2; in that of C8G G21U, 0.13. In the case of C8G G21C it was 0.06; in that of C8G G21A, 0.32. In the case of C8U A12C it was 0.04; in that of C8U A12G, 0.08; in that of C8U A12U, 0.29. C8G G22C: the self-cleavage was found to be 0.06.

C8G G22U: the self-cleavage is 0.09.

With C8G G22A, the self-cleavage turned out to be 0.1.

Take C8G G30C: the self-cleavage stood at 0.1. In the case of C8G G30U it was 0.2. As for C8G G30A, the self-cleavage is 0.21. In the case of U9A G22U it was 0.11. In the case of U9A G22A it was 0.14; in that of U9A G22C, 0.09.

As for U9A G30C, the self-cleavage was 0.1.

Take U9A G30A: the self-cleavage is 0.18. In the case of U9A G30U it was 0.08; in that of C8G A25C, 0.11. In the case of C8G A25G it was 0.1; in that of C8G A25U, 0.26. Next, U9A G44C: 0.07. Regarding U9A G44A, the self-cleavage was 0.31. Take U9A G44U: the self-cleavage turned out to be 0.09. As for C8G A41U, the self-cleavage turned out to be 0.25. Regarding C8G A41C, the self-cleavage stood at 0.14. In the case of C8G A41G it was 0.13; in that of C8G C45G, 0.08. Next, C8G C45U: 0.06.

As for C8G C45A, the self-cleavage amounted to 0.08.

C8U A11U: the self-cleavage came out at 0.03. As to C8U A11C, the self-cleavage came out at 0.07. In the case of C8U A11G it was 0.03; in that of C8G A39C, 0.17; in that of C8G A39G, 0.06. Next, C8G A39U: 0.04; C8U C46U: 0.56. Next, C8U C46G: 0.2; C8U C46A: 0.33. For C8G C23G, the self-cleavage worked out at 0.08. Next, C8G C23U: 0.1; C8G C23A: 0.1. Next, C8G G27U: 0.11. In the case of C8G G27A it was 0.17; in that of C8G G27C, 0.1; in that of C8U U34A, 0.1.

As to C8U U34C, the self-cleavage is 0.18.

Regarding C8U U34G, the self-cleavage worked out at 0.22. C8G U38A: the self-cleavage came out at 0.06. With C8G U38G, the self-cleavage is 0.32. Next, C8G U38C: 0.05; U9A C45G: 0.32. Next, U9A C45A: 0.31; U9A C45U: 0.28. Next, C8U G21C: 0.25; C8U G21A: 0.39; C8U G21U: 0.25. For the variant C8U G35A, the self-cleavage came to 0.32. Turning to C8U G35C, the self-cleavage stood at 0.09.

For the variant C8U G35U, the self-cleavage stood at 0.42. Next, U9A G35A: 0.15; U9A G35U: 0.09. Next, U9A G35C: 0.08.

On to C8G C31U, for which the self-cleavage amounted to 0.11. For C8G C31A, the self-cleavage was found to be 0.06. In the case of C8G C31G it was 0.05; in that of U9A C15U, 0.17; in that of U9A C15G, 0.25. Next, U9A C15A: 0.13; C8U A14G: 0.19; C8U A14C: 0.15.

Turning to C8U A14U, the self-cleavage is 0.09. Next, C8U G40C: 0.13.

Take C8U G40A: the self-cleavage is 0.41.

C8U G40U: the self-cleavage came to 0.29. In the case of C8U U20G it was 0.12; in that of C8U U20C, 0.09. Next, C8U U20A: 0.21. Next, C8U A25G: 0.13; C8U A25C: 0.21; C8U A25U: 0.18. In the case of C8U A24C, the self-cleavage turned out to be 0.24. Next, C8U A24U: 0.33; C8U A24G: 0.14; C8U C23U: 0.25. Next, C8U C23G: 0.29; C8U C23A: 0.21.

For U9A U43C, the self-cleavage stood at 0.14. Next, U9A U43G: 0.28; U9A U43A: 0.2; U9A A12C: 0.03. Next, U9A A12U: 0.13; U9A A12G: 0.05; C8U C45G: 0.46. In the case of C8U C45A it was 0.21; in that of C8U C45U, 0.32.

Turning to U9A G33C, the self-cleavage was 0.07.

As to U9A G33U, the self-cleavage turned out to be 0.07. In the case of U9A G33A it was 0.11; in that of U9A C46U, 0.17; in that of U9A C46A, 0.17. In the case of U9A C46G it was 0.12; in that of C8G G44A, 0.04. Next, C8G G44C: 0.05. Regarding C8G G44U, the self-cleavage worked out at 0.04. For C8G U32A, the self-cleavage was 0.04. Next, C8G U32G: 0.06; C8G U32C: 0.06; C8U G19U: 0.24.

Regarding C8U G19C, the self-cleavage came to 0.17.

Turning to C8U G19A, the self-cleavage turned out to be 0.35.

Consider C8U, for which the self-cleavage amounted to 0.29. In the case of C8U C15A it was 0.11.

As to C8U C15G, the self-cleavage was found to be 0.09.

Consider C8U C15U, for which the self-cleavage stood at 0.25.

C8U U9G: the self-cleavage was found to be 0.09. Next, C8U U9C: 0.06.

C8U U9A: the self-cleavage was found to be 0.32.
